Source: the DeepSol protein solubility set

Experiment: soluble on expression in E. coli; label from the status in PepcDB or PDB records

Sequence	soluble on expression in E. coli
MAHHHHHHMEHVNANEKNGYLASEKNELTKNKVEEHTYDYDYVVIGGGPGGMASAKEAAAHGARVLLFDYVKPSSQGTKWGIGGTCVNVGCVPKKLMHYAGHMGSIFKLDSKAYGWKFDNLKHDWKKLVTTVQSHIRSLNFSYMTGLRSSKVKYINGLAKLKDKNTVSYYLKGDLSKEETVTGKYILIATGCRPHIPDDVEGAKELSITSDDIFSLKKDPGKTLVVGASYVALECSGFLNSLGYDVTVAVRSIVLRGFDQQCAVKVKLYMEEQGVMFKNGILPKKLTKMDDKILVEFSDKTSELYDTVLYAIGRKGDIDGLNLESLNMNVNKSNNKIIADHLSCTNIPSIFAVGDVAENVPELAPVAIKAGEILARRLFKDSDEIMDYSYIPTSIYTPIEYGACGYSEEKAYELYGKSNVEVFLQEFNNLEISAVHRQKHIRAQKDEYDLDVSSTCLAKLVCLKNEDNRVIGFHYVGPNAGEVTQGMALALRLKVKKKDFDNCIGIHPTDAESFMNLFVTISSGLSYAAKG	not soluble
MISLFSPCHLSAALLISALSIVPTNAAPSPVSSPFTVNATVLTGCVLGGGATDSSNFGSINFGNITSLATAINATSGLNAGTITIQCNGNPSVTLALNSGANMTGNISAGRHLLNSSTGEYLLYQIYQNSPRTLIWGDGSNGGATQVIATDGTLQQVILYAQLFASNTQPTAGVYLDTLLVTVTY	not soluble
MNNIQTNTRDQDSLEYILQLELDNIRLFLELLEHERNLLAAGNLDDLALLVADKDRLIDQFARLDMRRNRFLNAAGLPEGTQGMNAWVSGSDEESTVARDWEELLGLADLAKQLNQTNAVITSSWLQYTRRTLNALHSAAGRPPLYNTKGQTT	not soluble
MAHHHHHHMYTRDVSDRISGISAADLAQRLVEVSARNTARDGALSPSVCQRPLPHCVSALLWDAKCAGAAPPRTALLRGDVVDMTSSVSDATLSCVALSDDVRFRFARSRHRRLTGILSSTAAPLPPRMCRVDVTHFYWMDECAPGLTYDDQSVLSTVLQKRIVQWAVSAFARNPLLRNISLQALEAVFPALLAFSPREREELLKHAAELLGQGTLIWYGQAMIKQFHESAASLALSLLTSSEERCSAALLFALATAQEVMGARRDDAAQALRFLLEVYGVRGVALSPALTTAALLVSRATVPLCTRRCLGAGSRQHHLLQPYLFPLSCAHVETLPWIPHNTHTSSPEHLRELVRRAREAAAAVLATAAPCTATTAQKRHAHEDDVNAFFSANHALEIHRDTLVTHASGDVPSSLPALKAADSGAAARSRLLEAAPKWWEQEAKASNSDTAREETELKLHVKAAAAELREPHGSDHALLAVIHRTRKRQRNREQPTAQTVEAALEGAAIRLKRRAFLQLVDIFALNAHTEDRDGKARQYLEQHHVAEAQIRDFTTLLSSTRKT	not soluble
GPGYNEPMAASDEVNLIESRTVVPLNTWVLISNFKVAYNILRRPDGTFNRHLAEYLDRKVTANANPVDGVFSFDVLIDRRINLLSRVYRPAYADQEQPPSILDLEKPVDGDIVPVILFFHGGSFAHSSANSAIYDTLCRRLVGLCKCVVVSVNYRRAPENPYPCAYDDGWIALNWVNSRSWLKSKKDSKVHIFLAGDSSGGNIAHNVALRAGESGIDVLGNILLNPMFGGNERTESEKSLDGKYFVTVRDRDWYWKAFLPEGEDREHPACNPFSPRGKSLEGVSFPKSLVVVAGLDLIRDWQLAYAEGLKKAGQEVKLMHLEKATVGFYLLPNNNHFHNVMDEISAFVNAE	soluble
MKKTLPKTEAPSSVGNGSDSPIEFDAIIRQVPDMDAAYVEIPFDVKTVYGKGRVRVNATFDGYPYTGYIVRMGLPCHILGLRQDIRRAIGKQPGDSVYVTLLPL	soluble
MSAVNGLVPSTIFDRINSDMDVSEEMEEIREVLYEMIKTNFPMGVAATHLSEKYHEEFVSKGLGRELPEDWIQQVTAAEEFEAQTRGPITILFVRLSNTSSFKRPPINSVNVRVISTDREPTADELKKIKQRKENEPTEHAKTLSQQSVALKEGSTVSIVYADSPKRFFIRALADDDQYEKIGTTLAEIYAQETPPSALDSRVAIYEIVAGGAYALQDSNGTWFRVIAKQPPQSGQVMCHFVDVGVCEKFPVAAIRLLPPAVHPVMSIGSMAREVRMDVSEEESLRLNNKFVDLTFETKDDGIQVPINLTLSKFDSSDSESLPVVDLQSSDGLSITEFLKKPSGVVRLSTPTKTTSPITPASASTSSLTCLFDKPATIQPMTVAQMPMSAFPANAIFAAGPTDISLRQLSLDPMPDYMYAKLKDECALPDSQLESSPDFGGFYAAFIDDRWERVQCIRASKIDKQAYCVYLLDVGAFQYVRKEAMRRLNSTSPFKKMLMFKCKIGGIKPVAGGEVWSRESHEAVREFFEAACGEPVVVEPTQPGWSQWKQLNAPAVPTCEARLSCCGRDIGDWLIACGLALPINAPIPSPNSQSLLTFVPTPINIVGRNI	not soluble
GSMKKWSDTEVFEMLKRMYARVYGLVQGVGFRKFVQIHAIRLGIKGYAKNLPDGSVEVVAEGYEEALSKLLERIKQGPPAAEVEKVDYSFSEYKGEFEDFETY	soluble
MSLGEHLEFDEKKIEKIMMIKRSYLNGEISLEEAKIKMQASFDQVTAQEFAICEQYLQKYGISDDVLAERMEEIIEIFDGVLVTTKLNLPSGHPIRTYLDEVDAIRRILGEMREMSKKKFIKNQWAQYYDQLGEINIHFARKQNQLFTALEKKGFDKPSKVMWTLDNNIRDMIKKAKEYLETDQDNAFLEIQDEVIEMVEDMMVKEEEILFPTTMDLLTDEDFIEMRKGDDEIGYCLIDSPLPYGKKENKDTDTSSNNELLKDLANVLQKHGMLTKASNDEVLDVSQGKLTLEQINLLFKHLQVDLSFVDENEIVKFYSDTKHRVFPRSAGVIGREVQNCHPRESVHTVEEIIRAFRAGEHDEAEFWLEMGGKFIYIIYNAVRDEDGNFKGVLEMMQDVTKIRSLTGSQRLLSWGDKEEEPKSKVTEHTGIENEYGITKETIIGDLVKEYPFIKEFLFNLSPKFSKLQNPIVFKTMSSIATVEMISEKGGFEVQDLIDRIVKEIQSRKEGHHHHHH	soluble
MPGINGAGPSNFFWQWRTDGEPVTEREHDSSRSASSANSPELPPPASPAESGRQRLLRSSALSRQTREWLEATPARVQGATPPAEARQSPEAQQAERIVQELVRGGADLNNVRTMLRNVMDNNAVAFSRVERDILLQHFPNMPMTGISSDSVLANELRQRLRQTVRQQRIQSSTPARLADSSSGSSQRSLIGRSTMLMTPGRSSSSSAAASRTSVDRHPQGLDLESARLASAARHNHSANQTNEALRRLTQEGVDMERLRTSLGRYIMSLEPLPPDLRRALESVGINPFIPEELSLVDHPVLNFSAALNRMLASRQTTTNSPELPPLASSAESGRRRLLRSPPLLSGQREWIEQSMRQEAEPQSSRLNRAVRLAVMPPQNENEDNVAYAIRLRRLNPGADVSRVVASFITDPAARQQVVNDIRAALDIAPQFSQLRTISKADAESEELGFRDAADHPDNATSCLFGEELSLSNPDQQVIGLAVNPTDKPQPYSQEVNKALTFMDMKKLAQYLADKPEHPLNRQRLDAKNIAKYAFKIVP	not soluble
GKTVSVFGETCATPVGPAAGPHTQLAQNIVTSWLTGGRFIELKTVQILDRLELEKPCIDAEDECFNTEWSTEFTLLKAWDEYLKAWFALHLLEAMFQPSDSGKSFIFNMSVGYNLEGIKQPPMQQFIDNMMDASDHPKFAQYRDALNKLLQNEAFLARHGLQEKRESLQALPARIPTSMVQGVTLSTMHGCPPHEIEAICRYMLEEKGLNTFVKLNPTLLGYARVREILDVCGFGYIGLKEESFDHDLKLTQALEMLERLMALAKEKSLGFGVKLTNTLGTINNKGALPGEEMYMSGRALFPLSINVAAVLSRAFDGKLPISYSGG	not soluble
MSLIYLLNETPFEGVENLILNEIVFYDFSVDLSLYDALICTSKNALKALQHAKITLNFKLNLYAVGQSTAQYAKNLGFKKIKIPSKAYGKDLFLEFKEELKMQKCLYLRAKNIVSTLNLDLKNVGVDLDEMIVYENVFKKGDKKLIHPAIFIFTSPLSVENFLKFYSLKEEDKVVVIGQSTAKKLLNFKNLYICENQSLLNCVKLAKTLVEGHHHHHH	not soluble
MGSDKIHHHHHHMKIALGPISYCWEKDKVYTFYEKAAQSQVHSVYLGETVCSRRREVKLADYLAIARQLNAAGKEVILSTMALIEAQSEIGELKRCVDNGEFIIEANDMAAVHYASEAKLPFICGPSINNYNRASLDILHKLGMVRFVMPYELSRDWLTKVIETQPEFDIEVMGHGYMPLAHSARCFTAKHFGLRKDNCDTLCKTHPKGMLAQTQENQPLLRLNGIQTQSAAYVDLISEIPNMKALGVSYFRVSPTALSSIELADELCITLTQQQVPQSKHSSESCNGYWFGEAGFNQVSP	not soluble
MQMDGSKHMGTGAADAPFYLAQGDECDIFTAAYDNNLPVLLKGPTGCGKTRFVAHMAAKLGRPLYTVACHDDLAAADLIGRYLLKGGETVWVDGPLTRAVREGAICYLDEVVEARKDVTVVLHPLTDDRRILPIDRTGEELEAMPGFMLVASYNPGYQNILKTLKPSTRQRFISLEFDFPAPELEARVVSQESGLPLERCKPLIRLAGKLRGLKGQDLEEGVSTRLVVYAATLIAQGMPTERAILAAMVEPLTDDEDIKRGLLDLTTAVFGLEHHHHHH	not soluble
MGSDKIHHHHHHMIFYCALSIGRVFSATIKTCPNVHQVHHVVLTIEMSINMQNNEQTEYKTVRGLTRGLMLLNMLNKLDGGASVGLLAELSGLHRTTVRRLLETLQEEGYVRRSPSDDSFRLTIKVRQLSEGFRDEQWISALAAPLLGDLLREVVWPTDVSTLDVDAMVVRETTHRFSRLSFHRAMVGRRLPLLKTASGLTWLAFCPEQDRKELIEMLASRPGDDYQLAREPLKLEAILARARKEGYGQNYRGWDQEEKIASIAVPLRSEQRVIGCLNLVYMASAMTIEQAAEKHLPALQRVAKQIEEGVESQAILVAGRRSGMHLR	not soluble
MGSDKIHHHHHHMADRMQWANALSTRPSLEAAVTDVVQRAVSTLTAPADLGLVFISSAFASEYSRVLPLLAEQLSVPVMIGCSGGGVIGTAASGQTQELEAEAALSLTLAHLPGVNLQVFHVLGEELPDLDSPPDTWINLIGVPPSPTPHFILLSSAFSSGINDLLQGLDFAYPGSVILGGQASVGGMGGRLALFCNGSLHREGTVGLALSGNIVLEPIVAQGCRPIGEPLQVTKAERNIILELDEKVPLVVLRDLIASLSEKERALAQHSLFVGVAMDEFKLSLQQGDFLIRSILGVDPSGGAIAIGDLVRPGQRLQFHLRDSQASAEELEFLLERYQTKPEFDNSAVGALMFSCVGRGEGLYGKPNFDSELFKRYIQDVPVGGFFCGGEIGPVGGRTFLHGYTSVFGICRELSVED	not soluble
MVAESNSAVAPTANVATSPAHEHFVRVNGGHFELQGKPYVITGVNMWYAAYLGAPNEVGDRDRLAKELDNLKAIGVNNLRVLAVSEKSEINSAVKPAVTNGFGNYDETLLQGLDYLLVELAKRDMTVVLYFNNFWQWSGGMTQYMAWIEGEPVQDPNVTNEWEAFMAKSASFYRSEKAQQEYRKTLEKIITRVNSINGKAYVDDATIMSWQLANEPRPGNSQTTAEEKQIYIDWVHAAAAYIKTLDAHHLVSSGSEGEMGSVNDMQVFIDAHATPDIDYLTYHMWIRNWSWFDKTKPAETWPSAWEKAQNYMRAHIDVAKQLNKPLVLEEFGLDRDMGSYAMDSTTEYRDNYFRGVFELMLASLEQGEPSAGYNIWAWNGYGRTTRANYWWQEGDDFMGDPPQEEQGMYGVFDTDTSTIAIMKEFNARFQPKLEHHHHHH	soluble
